Test results: paper PMC11661604

Target: native Semliki Forest virus (SFV) virion (Semliki Forest virus)
Assay: SPR; Biacore 8K; purified SFV virions amine-coupled on a CM5 chip (more than 2,500 RU); Fc fusions flowed in gradient concentrations at 30 μL/min in PBS with 0.05% Tween-20, pH 7.4, 25°C; 1:1 binding model

LA1-3-Fc (from UniProt P98155-1 31-152) (Fc fusion)
increase in KD compared to LA2-3: 0.1 µM

LA2-3-Fc (from UniProt P98155-1 69-152) (Fc fusion)
Kd: 0.445 µM

LA2-5-Fc (from UniProt P98155-1 69-237) (Fc fusion)
Kd: 0.269 µM

LA3-4-Fc (from UniProt P98155-1 110-191) (Fc fusion)
Kd: 1.48 µM

LA3-5-Fc (from UniProt P98155-1 110-237) (Fc fusion)
Kd: 0.438 µM

LA3-Fc (from UniProt P98155-1 110-152) (Fc fusion)
Kd: 0.903 µM

VLDLRLBD-Fc (ligand-binding domain of human VLDLR, LA1-8, Fc fusion) (from UniProt P98155-1 31-355)
Kd: 0.252 µM
